Measurements as given in US20240301064A1 (published 2024).

B1: PMAB208 (bispecific antibody, human IgG1, kappa)
heavy: QVQLVQSGAEVKKPGASVKVSCKASGYTFSDHYMHWVRQAPGQGLEWMGTIAPSGGRTSYAQKFQGRVTMTRDTSTSTVYMELSSLRSEDTAVYYCAADNGHASGWLYYYGMDVWGQGTTVTVSSASTKGPSVFPLAPSSKSTSGGTAALGCLVKDYFPEPVTVSWNSGALTSGVHTFPAVLQSSGLYSLSSVVTVPSSSLGTQTYICNVNHKPSNTKVDKKVEPKSCDKTHTCPPCPAPEAAGAPSVFLFPPKPKDTLMISRTPEVTCVVVDVSHEDPEVKFNWYVDGVEVHNAKTKPREEQYNSTYRVVSVLTVLHQDWLNGKEYKCKVSNKALPAPIEKTISKAKGQPREPQVYTLPPSREEMTKNQVSLTCLVKGFYPSDIAVEWESNGQPENNYKTTPPVLDSDGSFFLYSKLTVDKSRWQQGNVFSCSVMHEALHNHYTQKSLSLSPGGGGGSGGGGSGGGGSEVQLLESGGGLVQPGGSLRLSCAASGFTFSDFWMHWVRQAPGKGLEWISYISGDSGYTNYADSVKGRFTISRDNSKNTLYLQMNSLRAEDTAVYYCARDRPYYYYMDVWGKGTTVTVSSGGGGSGGGGSGGGGSGGGGSDIQMTQSPSSLSASVGDRVTITCRASQSVSRSLAWYQQKPGKAPKLLIYAASSLQSGVPSRFSGSGSGTDFTLTISSLQPEDFATYYCQQYKSYPVTFGQGTKVEIK
light: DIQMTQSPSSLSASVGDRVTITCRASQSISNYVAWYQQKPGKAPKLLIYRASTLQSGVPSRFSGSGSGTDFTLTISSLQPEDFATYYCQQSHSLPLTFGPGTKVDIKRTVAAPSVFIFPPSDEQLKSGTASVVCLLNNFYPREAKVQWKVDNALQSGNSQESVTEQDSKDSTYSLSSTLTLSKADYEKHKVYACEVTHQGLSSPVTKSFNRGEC
B2: PMAB209 (bispecific antibody, human IgG1, kappa)
heavy: QVQLVQSGAEVKKPGASVKVSCKASGYTFSDHYMHWVRQAPGQGLEWMGTIAPSGGRTSYAQKFQGRVTMTRDTSTSTVYMELSSLRSEDTAVYYCAADNGHASGWLYYYGMDVWGQGTTVTVSSASTKGPSVFPLAPSSKSTSGGTAALGCLVKDYFPEPVTVSWNSGALTSGVHTFPAVLQSSGLYSLSSVVTVPSSSLGTQTYICNVNHKPSNTKVDKKVEPKSCDKTHTCPPCPAPEAAGAPSVFLFPPKPKDTLMISRTPEVTCVVVDVSHEDPEVKFNWYVDGVEVHNAKTKPREEQYNSTYRVVSVLTVLHQDWLNGKEYKCKVSNKALPAPIEKTISKAKGQPREPQVYTLPPSREEMTKNQVSLTCLVKGFYPSDIAVEWESNGQPENNYKTTPPVLDSDGSFFLYSKLTVDKSRWQQGNVFSCSVMHEALHNHYTQKSLSLSPGGGGGSGGGGSGGGGSEVQLLESGGGLVQPGGSLRLSCAASGFTFSDFWMHWVRQAPGKGLEWISYISGDSGYTNYADSVKGRFTISRDNSKNTLYLQMNSLRAEDTAVYYCARDRPYYYYMDVWGKGTTVTVSSGGGGSGGGGSGGGGSGGGGSDIQMTQSPSSLSASVGDRVTITCRASQSVSRSLAWYQQKPGKAPKLLIYAASSLQSGVPSRFSGSGSGTDFTLTISSLQPEDFATYYCQQYKSYPVTFGQGTKVEIK
light: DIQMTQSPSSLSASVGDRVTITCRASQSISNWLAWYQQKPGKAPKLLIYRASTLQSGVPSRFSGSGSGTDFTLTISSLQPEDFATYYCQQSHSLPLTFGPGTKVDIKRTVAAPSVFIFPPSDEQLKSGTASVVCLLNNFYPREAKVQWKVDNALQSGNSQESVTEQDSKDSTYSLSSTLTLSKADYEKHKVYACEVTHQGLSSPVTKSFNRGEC
B3: PMAB210 (bispecific antibody, human IgG1, kappa)
heavy: QVQLVQSGAEVKKPGASVKVSCKASGYTFSDHYMHWVRQAPGQGLEWMGTIAPSGGRTSYAQKFQGRVTMTRDTSTSTVYMELSSLRSEDTAVYYCAADNGHASGWLYYYGMDVWGQGTTVTVSSASTKGPSVFPLAPSSKSTSGGTAALGCLVKDYFPEPVTVSWNSGALTSGVHTFPAVLQSSGLYSLSSVVTVPSSSLGTQTYICNVNHKPSNTKVDKKVEPKSCDKTHTCPPCPAPEAAGAPSVFLFPPKPKDTLMISRTPEVTCVVVDVSHEDPEVKFNWYVDGVEVHNAKTKPREEQYNSTYRVVSVLTVLHQDWLNGKEYKCKVSNKALPAPIEKTISKAKGQPREPQVYTLPPSREEMTKNQVSLTCLVKGFYPSDIAVEWESNGQPENNYKTTPPVLDSDGSFFLYSKLTVDKSRWQQGNVFSCSVMHEALHNHYTQKSLSLSPGGGGGSGGGGSGGGGSEVQLLESGGGLVQPGGSLRLSCAASGFTFSDFWMHWVRQAPGKGLEWISYISGDSGYTNYADSVKGRFTISRDNSKNTLYLQMNSLRAEDTAVYYCARDRPYYYYMDVWGKGTTVTVSSGGGGSGGGGSGGGGSGGGGSDIQMTQSPSSLSASVGDRVTITCRASQSVSRSLAWYQQKPGKAPKLLIYAASSLQSGVPSRFSGSGSGTDFTLTISSLQPEDFATYYCQQYKSYPVTFGQGTKVEIK
light: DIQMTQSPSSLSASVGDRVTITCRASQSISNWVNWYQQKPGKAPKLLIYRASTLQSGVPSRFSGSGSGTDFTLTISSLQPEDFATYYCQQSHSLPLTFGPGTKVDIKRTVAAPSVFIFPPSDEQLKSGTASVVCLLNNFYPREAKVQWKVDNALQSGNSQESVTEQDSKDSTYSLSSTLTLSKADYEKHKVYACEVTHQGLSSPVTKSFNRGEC

Each binder was assayed against T1, human PD-1 (human, UniProt Q15116 25-167, limits assumed) (assay: BLI, antibody on AHC tip, soluble PD-1).
T1 construct: also called huPD-1
T1 sequence (Q15116 25-167 limits assumed): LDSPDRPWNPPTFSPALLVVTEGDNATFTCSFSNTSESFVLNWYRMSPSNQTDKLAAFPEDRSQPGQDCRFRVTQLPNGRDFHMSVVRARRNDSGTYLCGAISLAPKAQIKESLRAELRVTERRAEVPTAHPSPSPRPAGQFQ

| Binder | Kd [µM] |
| --- | --- |
| B1 | 0.553 |
| B2 | 0.687 |
| B3 | 3.13 |
